Assay [1] concerns the target H5 A/Cambodia/2302009/2023 HA ectodomain (influenza A virus H5N1 A/Cambodia/2302009/2023).
Assay [2] has as its target H5 A/Victoria/149/2024 HA ectodomain (influenza A virus H5N1 A/Victoria/149/2024).
For assay [3], the target named is H5 A/Indonesia/05/2005 HA ectodomain (influenza A virus H5N1 A/Indonesia/05/2005).
The target of assay [4] is H5 A/Sichuan/26221/2014 HA ectodomain (influenza A virus H5N6 A/Sichuan/26221/2014).

B1: 326-366.26 (IgG1) (antibody, V domains shown)
VH: QMQLQESGPGLVKPSGTLSLTCAVSGGSISNSHWWSWVRQSPGKGLEWIGEIYHSGSTYYNPSLKSRLTISVDKSKNQFSLKLTSVTAADTAVYFCARGLGWEQGGYRAFDMWGQGTTVTVSS
VL: EIVMTQSPATLSVSPGERVTLSCRASQSVGSSLAWYQQKPGQAPRLLIYAASTRATGIPARFSGSGSGTEFTLTISSLQSEDFAVYYCQQHYNWPPLTFGGGTKVEIK
B1 came in with a neutralization IC80, R4ΔPB1 reporter virus H5N1 A/Cambodia/2302009/2023 in assay [1] of more than 25 µg/mL. The molecule also returned a neutralization IC80, R4ΔPB1 reporter virus H5N1 A/Victoria/149/2024 in assay [2] of 0.193 µg/mL. The molecule further registered a neutralization IC80, R4ΔPB1 reporter virus H5N1 A/Indonesia/05/2005 in assay [3] of 0.009 µg/mL. The neutralization IC80, R4ΔPB1 reporter virus H5N6 A/Sichuan/26221/2014 in assay [4] came out at 0.008 µg/mL.

B2: 326-289.74 (IgG1) (antibody, V domains shown)
VH: QVQLVQSGAEVKKPGSSVKVSCKASGGTFSIYTFTWVRQAPGHGLEWMGGILPISGSAKYAQKFLGRVTITADESTSTVYMELSSLRSEDTAIYYCARDPYSNYFYGLDVWGQGTTVTVSS
VL: EIVLTQSPVTLSLSPGERATLSCRASQSVSRFLAWYQQKPGQAPRLLFYDASTRATGIPARFSGTGSGTDFTLTISGLEPEDFAVYYCQQRSNWPPEYSFGQGTKLEIK
In the case of B2, the neutralization IC80, R4ΔPB1 reporter virus H5N1 A/Cambodia/2302009/2023 in assay [1] was determined as 0.133 µg/mL. The same molecule yielded a neutralization IC80, R4ΔPB1 reporter virus H5N1 A/Victoria/149/2024 in assay [2] of 0.335 µg/mL. In assay [3], this molecule returned a neutralization IC80, R4ΔPB1 reporter virus H5N1 A/Indonesia/05/2005 of 0.014 µg/mL. This molecule gave a neutralization IC80, R4ΔPB1 reporter virus H5N6 A/Sichuan/26221/2014 in assay [4] of 0.006 µg/mL.
